Measurements: the DeepSol protein solubility set

Assay: soluble on expression in E. coli; label from the status in PepcDB or PDB records

## MAHHHHHHMLRHCIPRLGIAKTVIKDNYSLSTLTNGLRVLTCDDGNGVTGMGLFMLNGAKFESPDNAGAAAVFEALPLRDNQIYTSREISQALSGLGNAFKVTNNKEALSVILMLPRYHQRDGLELLNAMCLHPTRNEEEFRIAKEKTHERTLLYDRDATSVCFELVHEAGWNGKGLGHSLNPKKEELDKLTLEKFTAFHSACTRPERTVLAATGVADHKSFAEEVEKLLRFNNADVAVQAMPQLQPGYYPYTGGSRLVHRTEAPESVNKFQEKSLSHVALFFQGVPINHPDYYNISVIQTLLGGGTSFSSGGPGKGMQTKLFREVLNREGFLHGLECITAWYSDGGLFGLYGTAPHQAVVSLLNVMIYQAASICQRVSPTHLEMAKNQLRSQLILLGEGREQLLSDMGFNLVVHNHIITATETMEGTRNITLDDLKRVCADMIKKPLTFTVYGDTTKMPSHESLEETVRKTYEKLN
  soluble on expression in E. coli: not soluble

## MKMKILGISFGTKNGNNDTMCKVALKGAKEAGAEVEFIQMSSINIKHCTGCCACVKTLLSGKGSMCVLKDDFEWLLDKMKDADGIVVSDPIFEEGASGLFHTIMDRFGPRADRGNNIIGTKVAEAIGGKIPDSRMLNDKVISFMGIGGSDWGTRVQCEHAMLALIPMWKVIDNAWFPWAKELVMDDTRLVQVHQIGLNIVEAAKDFEKASYQGEEGVCPHCHNRLFYLEPGTKKAICALCGIVGELDTISGKTIFSFPEEQLGHAHDTLPGKFIHGDDIKKMEGHYAEVRKTQEFKERKTSYNFIETLTKEKQAGLEHHHHHH
  soluble on expression in E. coli: not soluble

## MIPGMRATPTESFSFVYSCDLQTNVQVKVAEFEGIFRDVLNPVRRLNQLFAEITVYCNNQQIGYPVCTSFHTPPDSSQLARQKLIQKWNEWLTLPIRYSDLSRDAFLHITIWEHEDDEIVNNSTFSRRLVAQSKLSMFSKRGILKSGVIDVQMNVSTTPDPFVKQPETWKYSDAWGDEIDLLFKQVTRQSRGLVEDVPWLDPFASRRIEMIRAKYKYSSPDRHVFLVLEMAAIRLGPTFYKVVYYEDETKNMRVSTSVNGGVGIVSACTRYCVADPELLLESLAEVKHSAMTRRIRDVEDERHRQVKPNKQAKDRLETIVNLPSSQVLTREQRDLVWKFRHYLRQFPKALNKYLRSVNWVHPQEVKTALALMNDWELIEAEDALELLSSAFTHPAVRAYSVSRLLEAASPEQVLLYLPQLVQALKYEQGQQLPEEGNPVPVVSEEEGKIPSVATTPTEELEGRDMTVVTKKEARKAASGDLATFLIDYALASPKVSNYLYWHLKTEIESTKESKEEHSKMYQNIQDRLMEALVKRPDTRAQVDSLHQQQIFVEDLIILMNEAKARGGRLNESKSAEFRTMLSRAKHMLDLKGVHLPLDPSFRLSSVIPDTASFFKSEMMPAKISFKVLQPNGKADRNIPEEYTVIFKTGDDLRQDQLIQQMVRLIDIILKKGQLDLKLTPYLVLSTGVGQGFVQCIKSKPLRAIQEQYKAHKMDCIREAMKELRPGDGPFGIEPNVIDNYVRSLAGYSVIMYILGLGDRHLDNLLLCENGKLFHVDFGFILGRDPKPMPPPMKLTSEMVQVMGGVKSKQFLEFVQHVDSAYRILRRHSNVLLNLFSLMLDAGIPDIAAEPDKAIFKIEQRLRLDLSDEAATKHIFTQIESSLNAKMAMISDIIHAYKQNLM
  soluble on expression in E. coli: not soluble

## MEEAKQKVVDFLNSKSGSKSKFYFNDFTDLFPDMKQREVKKILTALVNDEVLEYWSSGSTTMYGLKGAGKQAAAEHED
  soluble on expression in E. coli: soluble

## MLHAKIETLGVDPQNGSVVVLLRTENDKLLPIVIGPLEAHHIVVALQGEKPPRPLTPDLLLSVMEMLQAKLKRVEIVDLRDGTFYARLILEHRGIELEVDARPSDAMALALRAGAPILVAEEVVEKAGVEEANIRPHGAAEA
  soluble on expression in E. coli: soluble

## MGSDKIHHHHHHMKIAQIAPLAERVPPKLYGGTERIVHCLTEELVRLGHDVTLFASGDSLTSAELVPCCDVALRLNPRVQDFLPHHIAMLEEVRRRAPQFDVLHFHIEFLHFPLIRDFADRTVTTLHTRLDLPDLQPFYLAFPDIPLVSISQHQRVPMPPVNWRGTVLHGLDPTVLPLREGRSDEYLAFLGRIAPEKGPDRAIEIAARSGMPLKIAAKIDAQDRAYWEAVVEPLIASHSNVEYIGEIDEGQKADFLGNAAALLFPINWPEPFGLVMIEAMACGTPVLAFRYGSAPEVIDDGVSGILVDTVEQAVESLGRVLELDRRKVRESFETRFTTERMTRDYLDIYQNLPGVLRQTASTPQGEAKKVGLEAA
  soluble on expression in E. coli: not soluble

## MPIRDDISWPPSAVCSVSLILHLPGRFGHVSVAHLLLDHGADVNAQNRLGASVLTVASRGGHLGVVKLLLEAGAFVDHHHPSGEQLGLGGSRDEPLDITALMAAIQHGHEAVVRLLMEWGADPNHAARTVGWSPLMLAALTGRLGVAQQLVEKGANPDHLSVLEKTAFEVALDCKHRDLVDYLDPLTTVRPKTGQAACPPWLHRGPQIVFMWLKLRIALLEGHAELRVQPCRPLRLRKWCA
  soluble on expression in E. coli: soluble

## SLAGETINFCKGWKFHLGDAGKGASSSSYNDSQWRILNIPHDWSIEGTYKQFENGTDWQSGFLPAGISWYRKTFTIPSKWKNKKVQILFEGVYLNSEVWINGHWLGKRPNGYISFVYDLTPYLQEGKNQIAVKVDHSKALTGRWYTGSGIYRPVYLLVSNPTHIPYSGIHFRSKLQNKQSATYTLSIEIETQEKKPIKVKTYLQAPNGSIADTSEKIFVSSADSLCFLSGSIRKPLLWSPDSPNVYTLICQLTRDNKILDECRLPVGFRQLEFNPVSGFLLNGKSLKIKGVCDHHTVGAVGAAVPDDLLHYRLKLLKDMGCNAIRTSHNPFSPAFYNLCDTMGIMVLNEGLDGWNQPKAADDYGNYFDEWWQKDMTDFIKRDRNHPSIIMWSIGNEVTGATPEIQHNLVSLFHQLDPDRPVTQGGTDPTRGMKTDYQKKFNYLDIIGFNGNGEEIGELEHFHKNYPTLCAIATEVPHTYQTRGVYRSQTQWRRRDFPAPWEKGNINWEQFKHRVFPIPDLTEKECFPEESDYPYYQSSYDNASVRISARKSWQRTCSFPWLMGEFRWGSFDYLGEAEWPQRCGNFGIIDIAAIPKDAYFLYQSLWTDKPMVHLLPHWTHPGKEGKTIPVVIYTNCDAVELFINNVSLGSKPYTGEQLIWLVPYSPGKIEARGIKKGKIVATDCYQSAEAPHSVALASNKYSVKAGSDEVIRIEIDITDKNGIPCPYASNELSFHVSGPLRLLGVDNGNPTDMFPYQQPHCRCFRGKCVVLLQSDEEKGKGTLTVQGTKLVEKKLIIEVIEG
  soluble on expression in E. coli: soluble

## MGSDKIHHHHHHMTKSLITGANGFVGSAVTRCLLEAGHEVRCLVRPGSDRRNLDKLPVEISEGDLRSASSLKRAVAGCDNLFHVAADYRLWVPNPDTMYEINVKGTRALVLAAAEAGMKRMVYTSSVATLGTAENGVPADEDTPSSLGSMCGHYKRSKFMAEEIVQQMTREHDLPMVIVNPSTPIGPRDIKPTPTGRLVVDTLRNRMPAYVNTGLNIVHADDIAEGHLLAYKHGKPGERYILGGENMTLLQILQKIDEIRGRRIRRLGLPVKLMVPAAWLMEKMSTVTKVEPRATVDSVSMAKKKMFYSSDKAVRELGYRYRPAAAALEDAMNWFQANGYCG
  soluble on expression in E. coli: not soluble

## LPLCFADASGTLRYVNDRFTRLFGYAPEDIPTQEEWWSRVCTDGRCRGETADAWQASVQRGPNGASDIEPAEFRVACKNGDIRLVEVSGITIEGTVLATFIDI
  soluble on expression in E. coli: not soluble

## MSRAKAAPVAGPEVAANRAGRQARIVAILSSAQVRSQNELAALLAAEGIEVTQATLSRDLEELGAVKLRGADGGTGIYVVPEDGSPVRGVSGGTDRMARLLGELLVSTDDSGNLAVLRTPPGAAHYLASAIDRAALPQVVGTIAGDDTILVVAREPTTGAQLAGMFENLR
  soluble on expression in E. coli: soluble

## MDGPKPNLASAASMESLNSVSSEATNPSQVRTLFVSGLPMDAKPRELYLLFRGCRGYEGALLKMTSKNGKPTSPVGFVTFLSQQDAQDARKMLQGVRFDPECAQVLRLELAKSNTKVARPKQSPPPPQHAALSAAAAGVPQFLAPMQHDLLLDPQSAALFNEQQLLALSLPHLHAAQALQAAYMPASALQQYSQNQLFAAAQMHPAAAAAASLQHSQQASQASTSACSTLFVANLSAEVNEDTLRGVFKAFSGFTRLRLHNKNGSCVAFVEYSDLQKATQAMISLQGFQITANDRGGLRIEYARNKMADVNG
  soluble on expression in E. coli: soluble

## MRPEDEALIVACIPSLRRYARGLTGERDRADDLVQDTLERAWSRFSRWQRRGELRAWMFGIMHNQFIDGLRAQKRQADYGAETEIPELPVRATQADRLEVRDLDRHLQRLPADLRAVLLLVAVEEFTYREAAQVLEVPIGTVMSRLSRARERLAALLQVQAEAPAASTVQRIRAT
  soluble on expression in E. coli: not soluble
